Laboratory results reported in article PMC4941327.

Biological target: mAb04-MICA antibody fusion protein (human) (UniProt Q29983)
Test: SPR; Biacore X100; mAb04-MICA captured on a CM5 chip by anti-human IgG (Fc) antibody; soluble NKG2D injected at 7.8125-250 nM; HBS-EP pH 7.4; bivalent analyte model (the results say 2:1 binding model)

Sequence of UniProt Q29983 (Q29983 whole entry, looked up, the tested form may be a part): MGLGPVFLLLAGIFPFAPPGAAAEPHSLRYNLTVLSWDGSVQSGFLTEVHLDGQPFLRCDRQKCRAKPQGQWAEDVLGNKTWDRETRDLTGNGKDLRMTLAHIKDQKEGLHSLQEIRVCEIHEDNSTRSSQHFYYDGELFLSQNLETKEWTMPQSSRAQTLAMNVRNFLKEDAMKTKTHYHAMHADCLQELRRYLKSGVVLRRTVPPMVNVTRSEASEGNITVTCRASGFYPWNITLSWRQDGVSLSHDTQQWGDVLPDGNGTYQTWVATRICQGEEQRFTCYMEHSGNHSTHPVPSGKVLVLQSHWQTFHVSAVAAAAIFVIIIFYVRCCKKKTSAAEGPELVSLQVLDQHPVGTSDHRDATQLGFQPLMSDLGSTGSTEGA

“soluble recombinant NKG2D (from UniProt P26718 1-216) (receptor)” was tested, and the Kd was 710 nM, the koff was 188 s⁻¹ and the kon was 2.65e+08 M⁻¹ s⁻¹.
